The source of these data is PMC9256674, “Structures of LIG1 that engage with mutagenic mismatches inserted by polβ in base excision repair”.

Series [1] addresses AP-endonuclease 1 (human) (UniProt P27695). The series can be described thus: SPR; Biacore X-100; APE1 amine-coupled on a CM5 chip, 25 °C; LIG1 0-1.6 µM injected as analyte in 20 mM HEPES pH 7.4, 150 mM NaCl, 3 mM EDTA, 0.005% Surfactant P20; 1:1 (Langmuir) fit.
Series [2] deals with T1, LIG1 EE/AA (C-terminal, Δ261) (Homo sapiens, UniProt P18858 262-919, E346A;E592A). The series can be described thus: X-ray crystallography (3.0 Å); AMP as DNA-AMP (step 2); no Mg2+; Crystallization conditions not in the material; LIG1 final purification buffer 20 mM Tris-HCl pH 7.0, 200 mM NaCl, 1 mM DTT; storage 25 mM Tris-HCl pH 7.0, 200. As to conditions: protein: recombinant; nicked duplex: 11-mer upstream + 7-mer 5'-P downstream on 18-mer template; blunt ends; G:T wobble mismatch at nick 3'-end.
T1 sequence (P18858 262-919 E346A/E592A): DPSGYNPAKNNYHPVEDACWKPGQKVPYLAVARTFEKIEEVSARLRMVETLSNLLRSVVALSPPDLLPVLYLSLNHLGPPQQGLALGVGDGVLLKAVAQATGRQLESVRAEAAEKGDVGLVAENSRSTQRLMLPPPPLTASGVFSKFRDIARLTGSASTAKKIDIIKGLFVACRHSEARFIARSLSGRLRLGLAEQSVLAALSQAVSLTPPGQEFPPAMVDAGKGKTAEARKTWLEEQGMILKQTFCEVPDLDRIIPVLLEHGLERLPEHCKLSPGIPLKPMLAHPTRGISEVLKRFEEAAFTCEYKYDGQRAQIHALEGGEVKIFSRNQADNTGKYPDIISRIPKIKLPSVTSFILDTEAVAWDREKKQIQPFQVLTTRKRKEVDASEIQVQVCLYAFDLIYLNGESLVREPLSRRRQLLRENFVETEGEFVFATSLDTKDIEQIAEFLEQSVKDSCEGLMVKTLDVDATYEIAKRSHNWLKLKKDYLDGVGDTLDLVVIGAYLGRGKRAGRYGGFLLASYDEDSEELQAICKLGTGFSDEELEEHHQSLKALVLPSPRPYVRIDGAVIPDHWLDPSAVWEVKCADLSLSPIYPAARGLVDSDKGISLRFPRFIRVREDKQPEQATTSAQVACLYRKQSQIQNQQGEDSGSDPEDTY

For series [3], the target named is T1, LIG1 EE/AA (C-terminal, Δ261). Kind of series: X-ray crystallography (2.8 Å); AMP covalently on K568 (LIG1-AMP, step 1); no Mg2+; Crystallization conditions not in the material; LIG1 final purification buffer 20 mM Tris-HCl pH 7.0, 200 mM NaCl, 1 mM DTT; storage 25 mM Tris-HCl pH 7.0, 200. The conditions noted are these: protein: recombinant; nicked duplex: 11-mer upstream + 7-mer 5'-P downstream on 18-mer template; blunt ends; A:C wobble mismatch at nick 3'-end.

Series [4] shares this target. Kind of series: X-ray crystallography (2.9 Å); AMP as DNA-AMP (step 2); no Mg2+; Crystallization conditions not in the material; LIG1 final purification buffer 20 mM Tris-HCl pH 7.0, 200 mM NaCl, 1 mM DTT; storage 25 mM Tris-HCl pH 7.0, 200. The conditions noted are these: protein: recombinant; nicked duplex: 11-mer upstream + 7-mer 5'-P downstream on 18-mer template; blunt ends; A:T at nick 3'-end.

AP-endonuclease 1 (human), sequence (P27695 whole entry): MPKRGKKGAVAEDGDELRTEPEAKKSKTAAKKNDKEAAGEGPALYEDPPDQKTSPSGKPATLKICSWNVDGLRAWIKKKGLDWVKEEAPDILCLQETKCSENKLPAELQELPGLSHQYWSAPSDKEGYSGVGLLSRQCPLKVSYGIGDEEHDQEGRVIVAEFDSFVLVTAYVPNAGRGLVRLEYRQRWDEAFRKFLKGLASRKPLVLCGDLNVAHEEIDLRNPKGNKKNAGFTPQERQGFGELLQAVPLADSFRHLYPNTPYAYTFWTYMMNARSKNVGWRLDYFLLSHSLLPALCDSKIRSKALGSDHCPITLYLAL

In series [1], “DNA ligase I (from UniProt P18858 1-919) (enzyme)” had a Kd of 117 nM.

B1: nick DNA 3'-G:T (dsDNA)
DNA 1: GCTGATGCGTG
DNA 2: GTCGGAC
DNA 3: GTCCGACTACGCATCAGC
modifications: 5'-phosphate on downstream strand (GTCGGAC); adenylated (5'-AMP) in the crystal
Take B1: the binding result in series [2] is given as “binds”.

B2: nick DNA 3'-A:C (dsDNA)
DNA 1: GCTGATGCGTA
DNA 2: GTCGGAC
DNA 3: GTCCGACCACGCATCAGC
modifications: 5'-phosphate on downstream strand (GTCGGAC), not adenylated
Consider B2, for which the binding result in series [3] is “binds”.

B3: nick DNA 3'-A:T (dsDNA)
DNA 1: GCTGATGCGTA
DNA 2: GTCGGAC
DNA 3: GTCCGACTACGCATCAGC
modifications: 5'-phosphate on downstream strand (GTCGGAC); adenylated (5'-AMP) in the crystal
Take B3: the binding result in series [4] is given as “binds”.

What is called Kd is the equilibrium constant for the complex coming apart.
